# In PMC5383521 (Journal of molecular recognition : JMR, 2016):
# B1: murine monoclonal antibody LA-2, wild type (antibody, V domains shown)
# VH: QIQLVQSGPELKKPGETVKISCKASGYTFTDYSMYWVKQAPGKGLKRMGWINTETGEPTYADDFKGRFALSLDTSASTAYLHISNLKNEDTATYFCARGLDSWGQGTSVTVSS
# VL: DIQMTQSPSSLSATLGGKVTITCKASQDINKYIAWYQHKPGKGPRLLIHYTSTLQPGNPSRFSGSGSGRDYSFSISNLEAEDIAIYYCLQYDNLQRTFGGGTKVEIK
# B2: LA-2 H49A-Light (antibody, V domains shown)
# VH: QIQLVQSGPELKKPGETVKISCKASGYTFTDYSMYWVKQAPGKGLKRMGWINTETGEPTYADDFKGRFALSLDTSASTAYLHISNLKNEDTATYFCARGLDSWGQGTSVTVSS
# VL: DIQMTQSPSSLSATLGGKVTITCKASQDINKYIAWYQHKPGKGPRLLIAYTSTLQPGNPSRFSGSGSGRDYSFSISNLEAEDIAIYYCLQYDNLQRTFGGGTKVEIK
# Legend:
# [1] = target: murine monoclonal antibody LA-2, wild type (mouse); assay: SPR
# [2] = target: Outer surface protein A (OspA) from Borrelia burgdorferi B31, wild type (Borrelia burgdorferi B31, UniProt P0CL66); assay: SPR
Molecule,fold increase of affinity against wild type OspA [1] [fold],binding result [2]
OspA (B. burgdorferi B31) A215K (from UniProt P0CL66 17-273) (natural protein),7.5,–
B1,–,binds
B2,–,no binding
